Data from the RNAGym collection of RNA variant scans (doi:10.7554/elife.80360).

B1: HDV Ribozyme (parent)
chain: GGCCGGCAUGGUCCCAGCCUCCUCGCUGGCGCCGGCUGGGCAACAUUCCGAGGGGACCGUCCCCUCGGUAAUGGCGAAUGGGACCCA

Variants of: B1
Assay: self-cleavage, relative activity (ratio to wild type); higher = more cleavage; co-transcriptional

Variant	self-cleavage
C21G C44A	0
C21G C44U	0.0898
U23C G80C	0.188
U23C G80A	0.394
U23C G80U	0.16
C22U C66U	0.604
C22U C66G	0.814
U23C C36U	0.365
C21U C24A	0.0997
C21U C24G	0.0545
C22G C41A	0.0346
C22U C75G	0.208
U23A A42C	0.253
C21U G67U	0.174
C22A C33U	0.191
C22A C33A	0.0314
C22G G34A	0.0339
C22G G34U	0.0627
U23A C41A	1.07
C22A A42U	0.111
C22G G31C	0.0852
U23C C41G	0.201
C22G G28U	0.0739
C22G G28A	0.0462

Variant	self-cleavage
C22A G81A	0.205
C21U A71U	0.572
C21G C61U	0.032
C22A G52C	0.305
U23A C62G	0.776
C21G G35U	0.104
C22U U65C	0.78
C22G A83C	0.0898
C22A U60A	0.326
C21G A56C	0.0386
C21G G55U	0.0755
C21G C86U	0.0791
U23A G39C	0.204
C22U C26A	0.997
U23C G34A	0.0898
C22A G54A	0.197
C21A U79G	0.0396
C21U G73A	0.0955
U23A C30G	0
C22U G50C	0.671
C22U U60G	0.944
C22U U60A	0.623
C22U U60C	0.767
C21U C26A	0.383

Variant	self-cleavage
C21U C36U	0.218
C21G G82U	0.106
C21G G82C	0.0437
C21G G82A	0.101
C22U U72A	0.219
C22U U72G	0.17
C22U G54U	0.808
U23A G40U	0.769
C22U A71C	0.623
C22U G31A	0.22
C22A G53U	0.376
C22A G67U	0.259
C21U G31U	0.173
C22A A71C	0.0405
C22A A71G	0.393
C22A A71U	0.326
C21U G76A	0.271
C22G C48U	0.0594
U23C G81C	0.249
C21U G54C	0.292
C21G G80A	0.0196
C21G G80U	0.0963
C21G G40U	0.0308
C21G A87U	0.0723

Variant	self-cleavage
C21G A87C	0.0594
C21G A87G	0.0462
U23C G29C	0.0475
U23C A51U	1.15
U23C A51G	0.978
C21U C85G	0.358
C22A A43G	0.151
U23A C57U	0.812
U23A C57G	1.06
U23A C57A	1.09
C21G A43G	0.128
C21G A43U	0
C21G A43C	0
U23C C85U	0.849
C21U A78C	0.058
C21U A78U	0.148
U23A U27C	0.575
C21G U72G	0.0462
C22G C63U	0.147
C21U G39C	0.201
C22U G25U	0.0287
C22U G25A	0
C21G C26U	0.0615
C21G C26A	0

Variant	self-cleavage
C22U G53C	0.63
C22U C61G	0.545
C21G A71U	0
C22A A78U	0
C22A A78G	0.0369
C21G C62U	0
C21G C62A	0.119
C22G G67A	0.0898
C22G C75G	0.181
C22G C75A	0
C22G U69C	0.0755
C22G U69A	0.095
U23A G76C	1.1
C22U G55U	0.732
U23A C75U	0.346
U23A C61G	1.08
U23A C61A	1.03
C21U G34U	0.0354
C21U C30A	0.153
C22A U23A	0.224
C21G C85A	0.0504
C21G U46A	0.147
C22G U65C	0.0997
C22U C32A	0.117

Variant	self-cleavage
C22G C36U	0.108
C21G U47A	0.0773
U23C C26G	1.05
U23A C66G	0.787
C22A A70U	0.222
C21U U37A	0.157
U23A A77U	0.567
U23A A77C	0.332
C22U C36A	0.0739
C21U U72C	0.284
C22U G59C	0.566
U23C G31A	0.266
U23C G31U	0.151
C21U C57U	0.18
C22U C44A	0.0898
C22U G39C	0.115
C22U G39U	0.163
C21U A87U	0.368
C22G U46A	0.0519
C22G U46G	0.0875
C22U C30U	0.194
C22U C30A	0.117
C21U G40C	0.166
C21U C44A	0.437

Variant	self-cleavage
C21U G52U	0.182
C22G U47G	0.0791
C21A U65A	0.0405
C21U G81A	0.0978
C21U G81C	0.106
C21U G81U	0.0875
C22A C85U	0.345
U23C C57A	0.849
C22U G73U	0.157
C22U G73C	0.256
C21U U65G	0.0852
C21U U65C	0.198
C21G C33A	0
C21G C33U	0
C21G C33G	0.101
U23C U27G	1.06
U23A A70U	0.962
U23C U47C	1.04
C21G U79G	0.0554
C21G A51C	0
C22A A77G	0.38
C22A C75U	0.128
C22G U37A	0.0845
C21G U60G	0

Variant	self-cleavage
U23C G68C	0.727
C22G G68C	0.0354
C22G C24G	0.0339
C22G C24A	0.0396
C21U A83C	0.108
C22U C57G	0.914
C22U G74C	0.157
C22G C62U	0.0346
U23C G35C	0.115
U23C G35A	0.655
U23C C24G	0.0437
U23C C24U	0.57
C22U C33U	0.533
U23A G25A	0.277
C22A A51G	0.457
C22U C63G	0.782
C22A C26U	0.578
C22A C61U	0.237
U23A C63U	0.96
U23C G74U	0.554
C21G A83C	0
U23A U79G	0.665
C21G G76A	0.0386
U23C C61A	0.982

Variant	self-cleavage
U23C G55A	0.814
C22A C62G	0.212
C22G G39A	0.0817
U23A U60C	1.16
C22G C64U	0.0536
C22A G74A	0.0744
C22U C84A	0.408
C21A U69G	0.0723
C22U G52A	0.709
C22U A87U	0.644
C22A C36G	0.0354
C22A C36A	0.0536
C22A C36U	0.149
C22A G73A	0.0723
C22A G73C	0.0482
C22G G82C	0.0378
C22G A56G	0.0875
C22U U27C	0.312
C22U U27A	0.227
U23A C24U	0.199
U23A C24A	0.623
C22U U79C	0.198
C22U U79G	0.178
C21G G73U	0.026

Variant	self-cleavage
C21G G73C	0.17
C21G C41U	0.0941
C21U C62U	0.317
U23C C30G	0.0437
U23C C30U	0.755
C22U G67A	0.522
C22U G67C	0.535
U23A C64A	0.814
U23C C75G	0.148
C22A C41G	0.175
U23A C36U	0.671
C22U C85G	0.811
C22A G39A	0.0528
C22A G39C	0.0437
C22A G39U	0.166
C22G G59C	0.151
C21G G67A	0
C22G G35A	0.0615
C22G G35U	0.102
C22U A56G	0.895
U23A A83C	0.508
C22A A56C	0.312
C22A A56G	0.415
C22G C26G	0

Variant	self-cleavage
C22G C26U	0.208
C22U C86G	0.692
C21U A51C	0.332
C21U A51G	0.228
C21U A51U	0.308
C21U C41U	0.267
C21U C41A	0.339
C22A U72A	0.0665
C22A U72G	0.332
C21G G31C	0.147
C21G G31U	0
C21U G25A	0.0997
C21G C24G	0.0504
C22A U65C	0.446
C22U G28A	0.0804
C22U G28C	0
C21G A70U	0.111
C21U A45C	0.0256
C21U A45G	0.291
U23A A78C	0.219
C22G C66A	0.0692
C22U G76U	0.794
C22U G76A	0.643
C22A C49A	0.128

Variant	self-cleavage
C21A U72G	0.166
C22A G55C	0.262
C22G C61A	0.145
C22G A70C	0.0489
C22A A87G	0.33
C21G C84U	0.0231
C21G C84G	0
C21U G29U	0.0504
U23A A56U	1.08
C22G C86A	0.106
C22G C86U	0.0923
C21U G68C	0.0875
C21U G68A	0.252
C21U G68U	0.271
C22U A51C	0.928
C21U G80U	0.0919
C22A C63A	0.166
C22A C63G	0.369
C22A C63U	0.157
C22A U37G	0.0462
C22A U37C	0.0723
C21G U65A	0.0536
C22U A78C	0.126
C22U A78G	0.314

Variant	self-cleavage
C22U C62U	0.842
C22G G80C	0.136
U23C G67A	0.927
C21U A42U	0.0845
U23A G55U	0.976
C22U A42G	0.0755
C21G C30G	0
U23C G53U	0.938
C22U A43U	0.0831
C21U U47A	0.363
C21U U47G	0.185
C22U G82U	0.23
U23A G31A	0.489
C22A U27C	0.317
C22A U27A	0.0573
U23C G28A	0.0396
C21G G52A	0.0287
U23A U69G	0.911
C22G U79G	0.0665
C22G U79C	0.105
U23A C85U	0.98
C21U C64U	0.17
C21U C66G	0.277
C22U A83C	0.298

Variant	self-cleavage
C21G G34U	0.0604
U23A G74U	0.348
C22G C44A	0.0426
C21U U23A	0.173
C21G U69A	0.0426
C22A G80A	0.0479
C22U C48G	0.635
U23A G73U	0.464
C22U U46G	0.192
C21G U27G	0
C21U A77G	0.232
U23C A45U	0.675
U23C A45G	0.8
U23C A87G	0.855
U23A A71C	0.712
C22G C49U	0.0639
C22A G25C	0
U23A G35A	0.864
C21U A56G	0.315
C21U A56U	0.3
C22U C64A	0.786
U23A C86A	1.21
